Assay results taken from patent US20170240596A1 (CURATORS OF THE UNIVERSITY OF MISSOURI, published 2017).
No end group written: not given here.

Assays:
[1] = molecular target: T1, Prostate-specific membrane antigen (PSMA) (human, UniProt Q04609 1-750); assay: apparent Kd, flow cytometry, FAM-labeled peptide on PSMA-positive LNCaP cells, 4 C, one-site fit
T1 construct: whole, on cells; Never tested as an isolated protein against single peptides; also called NAAG peptidase; glutamate carboxypeptidase II (GCPII)
T1 sequence (Q04609 whole entry): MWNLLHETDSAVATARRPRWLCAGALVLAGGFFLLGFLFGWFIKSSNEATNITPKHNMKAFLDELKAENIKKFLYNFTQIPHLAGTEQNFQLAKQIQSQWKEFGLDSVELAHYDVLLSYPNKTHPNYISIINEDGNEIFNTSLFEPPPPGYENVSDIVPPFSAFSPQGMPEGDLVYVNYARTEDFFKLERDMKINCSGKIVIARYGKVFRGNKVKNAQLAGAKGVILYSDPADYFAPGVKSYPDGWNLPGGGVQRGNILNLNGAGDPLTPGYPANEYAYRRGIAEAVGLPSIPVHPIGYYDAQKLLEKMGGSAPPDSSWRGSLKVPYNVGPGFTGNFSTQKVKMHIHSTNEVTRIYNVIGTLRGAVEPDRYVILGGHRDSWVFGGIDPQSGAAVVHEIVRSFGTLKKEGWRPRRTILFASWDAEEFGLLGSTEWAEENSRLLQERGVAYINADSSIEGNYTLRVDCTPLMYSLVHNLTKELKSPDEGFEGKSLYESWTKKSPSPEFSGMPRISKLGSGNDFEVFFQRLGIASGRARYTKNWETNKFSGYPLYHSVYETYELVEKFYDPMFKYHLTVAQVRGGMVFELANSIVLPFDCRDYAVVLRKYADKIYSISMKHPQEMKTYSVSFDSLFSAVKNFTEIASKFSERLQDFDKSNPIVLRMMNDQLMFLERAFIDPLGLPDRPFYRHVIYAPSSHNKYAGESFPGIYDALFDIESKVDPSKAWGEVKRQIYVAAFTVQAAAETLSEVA
Source text: Flow cytometry analysis. Cells were detached using non-enzymatic cell dissociation solution and suspended in PBS (pH=7.4) at a concentration of 1×10⁶ cells/mL. […] The cells were then washed with PBS for three times and subjected to fluorescence analysis on a FACSCalibur flow cytometer (BD Biosciences, Franklin Lakes, N.J.).
Apparent equilibrium dissociation constant (Kd) of the peptides. […] Flow cytometry was employed to determine the percentage of cells that were labeled with the peptides. The apparent Kd values were calculated by fitting to a one-site specific binding model using GraphPad Prism 5.

[2] = molecular target: T1, Prostate-specific membrane antigen …; assay: competitive inhibition on LNCaP cells, peptide pre-incubation at 100 uM then phage, phage titering
Procedure: Competitive inhibition assay. Competitive binding inhibition between selected phages and their encoded peptides was examined in this study. […] The bound phages were recovered and titered as described above.
It was first evaluated whether these phages bind to LNCaP cells via specific interaction with their encoding peptides. LNCaP cells were pre-incubated with the encoding peptides, followed by washing and incubation with the corresponding phages. The bound phages were then eluted and titered.

[3] = molecular target: T1, Prostate-specific membrane antigen …; assay: apparent Kd by flow cytometry on C4-2 cells; weaker than GTI

Row | Binder | Kd [1] [µM] | binding result [2] | also measured
1 | HSDNHYRPADKL (also: FAM label, position not given here) [FAM-labeled HSD peptide HSDNHYRPADKL] | 12.8 |  | 
2 | TGHLYPTRMEIQ [TGH synthetic peptide TGHLYPTRMEIQ] |  | binds | 
3 | YVNSHSILGYTG [YVN synthetic peptide YVNSHSILGYTG] |  | binds | 
4 | SGYQTFYWPGPI (also: FAM label, position not given here, Random permutation of the GTI peptide; also called scrambled peptide; scrambled control) [FAM-labeled scrambled GTI peptide SGYQTFYWPGPI] |  |  | binding result [3]: binds
5 | TGHLYPTRMEIQ (also: FAM label, position not given here) [FAM-labeled TGH peptide TGHLYPTRMEIQ] | 8.01 |  | 
6 | YVNSHSILGYTG (also: FAM label, position not given here) [FAM-labeled YVN peptide YVNSHSILGYTG] | 9.34 |  | 
